# Assay results as given in paper PMC4427845, “Redesigning Protein Cavities as a Strategy for Increasing Affinity in Protein-Protein Interaction: Interferon-γ Receptor 1 as a Model” (BioMed Research International, 2015).
# Changes are numbered by the printed parent chain.
# T1: IFNγR1 G225Y variant (residues 18-245) (human, UniProt P15260 18-245, G225Y)
# T1 construct: interferon-γ receptor 1 (IFNγR1), human, extracellular domain, residues 18-245 of UniProt P15260; No primers are printed for this mutation; the methods say one protocol was followed for all proteins of the study; not shown: His tag, C-terminal, kept
# T1 sequence (looked up): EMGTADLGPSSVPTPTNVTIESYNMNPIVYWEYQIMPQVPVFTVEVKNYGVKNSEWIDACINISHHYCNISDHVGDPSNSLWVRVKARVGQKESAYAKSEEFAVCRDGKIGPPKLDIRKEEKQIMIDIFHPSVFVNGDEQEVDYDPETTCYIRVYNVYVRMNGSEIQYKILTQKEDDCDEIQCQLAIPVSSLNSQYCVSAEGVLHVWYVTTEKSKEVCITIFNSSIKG
# T2: IFNγR1 N96W + G225Y double mutant (residues 18-245) (human, UniProt P15260 18-245, N96W | G225Y)
# T2 construct: interferon-γ receptor 1 (IFNγR1), human, extracellular domain, residues 18-245 of UniProt P15260; not shown: His tag, C-terminal, kept
# T2 sequence (looked up): T1 sequence (looked up) with N79W
# T3: IFNγR1 N96W + V35L variant (residues 18-245) (human, UniProt P15260 18-245, V35L | N96W)
# T3 construct: interferon-γ receptor 1 (IFNγR1), human, extracellular domain, residues 18-245 of UniProt P15260; not shown: His tag, C-terminal, kept
# T3 sequence (looked up): T1 sequence (looked up) with V18L, N79W, Y208G
# B1: Recombinant interferon gamma in so-called single chain form (IFNγSC) (ligand)
# chain: MQDPYVKEAENLKKYFNAGHSDVADNGTLFLGILKNWKEESDRKIMQSQIVSFYFKLFKNFKDDQSIQKSVETIKEDMNVKFFNSNKKKRDDFEKLTNYSVTDLNVQRKAIDELIQVMAEFSTEEQQEGPYVKEAENLKKYFNAGHSDVADNGTLFLGILKNWKEESDRKIMQSQIVSFYFKLFKNFKDDQSIQKSVETIKEDMNVKFFNSNKKKRDDFEKLTNYSVTDLNVQRKAIHELIQVMAELSPAAKTGKRKRSQMLFRG
# Legend:
# Test in all cases: SPR; His-tagged receptor variants immobilised on a Ni2+-activated HTG sensor chip (ProteOn); IFNγSC 0.1-9 nM flowed over, 90 s association, 10 min dissociation, 100 μL/min; PBST (PBS pH 7.4, 0.005% Tween 20); doubly referenced (interspots and His-tagged FrpD channel); 1:1 Langmuir with drift model
# Conditions in all cases: both partners purified
# [1] = target: T1, IFNγR1 G225Y variant (residues 18-245)
# [2] = target: T2, IFNγR1 N96W + G225Y double mutant …
# [3] = target: T3, IFNγR1 N96W + V35L variant (residues …)
binder,measurement,setting,value
B1,ratio of Kd values against WT,[1],0.4
same,ratio of Kd values against WT,[2],3.1
same,fold of affinity against WT,[3],7 fold
